Measurements: PMC314469, “Protein Interaction Networks by Proteome Peptide Scanning” (PLoS Biology, 2004)

T1: Boi1 SH3 (BOI1_YEAST), P38041
T1 chain: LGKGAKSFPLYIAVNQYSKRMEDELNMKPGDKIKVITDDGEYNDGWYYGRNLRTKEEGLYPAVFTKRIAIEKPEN

T2: Boi2 SH3 (BOI2_YEAST), P39969
T2 chain: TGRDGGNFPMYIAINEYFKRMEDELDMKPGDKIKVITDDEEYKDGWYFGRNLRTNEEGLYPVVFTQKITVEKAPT

T3: Rvs167 SH3 (RV167_YEAST), P39743
T3 chain: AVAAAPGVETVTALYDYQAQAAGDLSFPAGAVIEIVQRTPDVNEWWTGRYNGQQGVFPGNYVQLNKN

T4: Yfr024 SH3 (LSB3_YEAST), P43603
T4 chain: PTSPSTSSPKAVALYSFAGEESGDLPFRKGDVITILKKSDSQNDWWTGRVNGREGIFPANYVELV

T5: Yhr016c SH3 (YSC84_YEAST), P32793
T5 chain: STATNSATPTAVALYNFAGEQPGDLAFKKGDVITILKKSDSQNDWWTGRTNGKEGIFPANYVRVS


Target: T1, Boi1 SH3 (BOI1_YEAST), P38041
Assay: SPOT array

Binder	normalised SPOT signal, Boehringer light units (BLU); mean over the file's lines of this peptide
ILYPDIPGKNYFLT [YOL087C 29-42]	118
IFPPLNPARTSLNS [YDR312W 172-185]	72.9
IIFPTSPTKLTFSN [YDR130C 112-125]	45.5
IIKPYLPFKISKWL [YJR054W 69-82]	37.9
ILSPGYPNKSFNNK [YGL073W 653-666]	92.5
IFFPNEPIRFVYPY [YPR072W 415-428]	30.1
IMPPPKPFRHGLDS [YBR108W 517-530]	258
IHSPRIPSKDEFIA [YER091C 704-717]	88.8
ILKPDIPLRNMLLR [YGL224C 138-151]	14700
IKYPGSPQRSSSFS [YMR036C 139-152]	105
IFGPSFPFRSHIDV [YDL224C 170-183]	138
IINPDTPHRRIFNQ [YBL019W 264-277]	314
IIIPPIPSKHSLLK [YDR425W 171-184]	92.9
IIFPYDPLKLGTHA [YBR163W 509-522]	22.3
IFNPQNPLKTGFEP [YMR087W 156-169]	95.5
IIGPDEPEKSLILK [YMR066W 43-56]	95.1
IFGPFGPMKEVKIL [YDR432W 144-157]	63.3
ILLPPLPERAYIMD [YGL144C 459-472]	12.7
ILTPDFPERRRLMK [YLR233C 283-296]	8730

Target: T2, Boi2 SH3 (BOI2_YEAST), P39969
Assay: SPOT array

Binder	normalised SPOT signal, Boehringer light units (BLU); mean over the file's lines of this peptide
ILYPDIPGKNYFLT [YOL087C 29-42]	46.9
IFPPLNPARTSLNS [YDR312W 172-185]	31.3
IIFPTSPTKLTFSN [YDR130C 112-125]	13.9
IIKPYLPFKISKWL [YJR054W 69-82]	39.8
ILSPGYPNKSFNNK [YGL073W 653-666]	68.5
IFFPNEPIRFVYPY [YPR072W 415-428]	36
IMPPPKPFRHGLDS [YBR108W 517-530]	222
IHSPRIPSKDEFIA [YER091C 704-717]	42
ILKPDIPLRNMLLR [YGL224C 138-151]	60
IKYPGSPQRSSSFS [YMR036C 139-152]	38.1
IFGPSFPFRSHIDV [YDL224C 170-183]	31.8
IINPDTPHRRIFNQ [YBL019W 264-277]	71.9
IIIPPIPSKHSLLK [YDR425W 171-184]	50
IIFPYDPLKLGTHA [YBR163W 509-522]	12.7
IFNPQNPLKTGFEP [YMR087W 156-169]	57.1
IIGPDEPEKSLILK [YMR066W 43-56]	33.5
IFGPFGPMKEVKIL [YDR432W 144-157]	23.4
ILLPPLPERAYIMD [YGL144C 459-472]	38.9
ILTPDFPERRRLMK [YLR233C 283-296]	99.2

Target: T3, Rvs167 SH3 (RV167_YEAST), P39743
Assay: SPOT array

Binder	normalised SPOT signal, Boehringer light units (BLU); mean over the file's lines of this peptide
ILYPDIPGKNYFLT [YOL087C 29-42]	32.7
IFPPLNPARTSLNS [YDR312W 172-185]	134
IIFPTSPTKLTFSN [YDR130C 112-125]	84.2
IIKPYLPFKISKWL [YJR054W 69-82]	68.5
ILSPGYPNKSFNNK [YGL073W 653-666]	100
IFFPNEPIRFVYPY [YPR072W 415-428]	65.5
IMPPPKPFRHGLDS [YBR108W 517-530]	1540
IHSPRIPSKDEFIA [YER091C 704-717]	73.2
ILKPDIPLRNMLLR [YGL224C 138-151]	1640
IKYPGSPQRSSSFS [YMR036C 139-152]	22.8
IFGPSFPFRSHIDV [YDL224C 170-183]	391
IINPDTPHRRIFNQ [YBL019W 264-277]	157
IIIPPIPSKHSLLK [YDR425W 171-184]	22.6
IIFPYDPLKLGTHA [YBR163W 509-522]	82.3
IFNPQNPLKTGFEP [YMR087W 156-169]	61.8
IIGPDEPEKSLILK [YMR066W 43-56]	23.6
IFGPFGPMKEVKIL [YDR432W 144-157]	56.3
ILLPPLPERAYIMD [YGL144C 459-472]	14900
ILTPDFPERRRLMK [YLR233C 283-296]	245

Target: T4, Yfr024 SH3 (LSB3_YEAST), P43603
Assay: SPOT array

Binder	normalised SPOT signal, Boehringer light units (BLU); mean over the file's lines of this peptide
ILYPDIPGKNYFLT [YOL087C 29-42]	116
IFPPLNPARTSLNS [YDR312W 172-185]	5080
IIFPTSPTKLTFSN [YDR130C 112-125]	314
IIKPYLPFKISKWL [YJR054W 69-82]	878
ILSPGYPNKSFNNK [YGL073W 653-666]	293
IFFPNEPIRFVYPY [YPR072W 415-428]	209
IMPPPKPFRHGLDS [YBR108W 517-530]	30900
IHSPRIPSKDEFIA [YER091C 704-717]	224
ILKPDIPLRNMLLR [YGL224C 138-151]	12900
IKYPGSPQRSSSFS [YMR036C 139-152]	391
IFGPSFPFRSHIDV [YDL224C 170-183]	9630
IINPDTPHRRIFNQ [YBL019W 264-277]	1670
IIIPPIPSKHSLLK [YDR425W 171-184]	3190
IIFPYDPLKLGTHA [YBR163W 509-522]	17.2
IFNPQNPLKTGFEP [YMR087W 156-169]	170
IIGPDEPEKSLILK [YMR066W 43-56]	86
IFGPFGPMKEVKIL [YDR432W 144-157]	195
ILLPPLPERAYIMD [YGL144C 459-472]	26200
ILTPDFPERRRLMK [YLR233C 283-296]	13700

Target: T5, Yhr016c SH3 (YSC84_YEAST), P32793
Assay: SPOT array

Binder	normalised SPOT signal, Boehringer light units (BLU); mean over the file's lines of this peptide
ILYPDIPGKNYFLT [YOL087C 29-42]	115
IFPPLNPARTSLNS [YDR312W 172-185]	829
IIFPTSPTKLTFSN [YDR130C 112-125]	0
IIKPYLPFKISKWL [YJR054W 69-82]	169
ILSPGYPNKSFNNK [YGL073W 653-666]	282
IFFPNEPIRFVYPY [YPR072W 415-428]	238
IMPPPKPFRHGLDS [YBR108W 517-530]	35500
IHSPRIPSKDEFIA [YER091C 704-717]	187
ILKPDIPLRNMLLR [YGL224C 138-151]	2420
IKYPGSPQRSSSFS [YMR036C 139-152]	198
IFGPSFPFRSHIDV [YDL224C 170-183]	6610
IINPDTPHRRIFNQ [YBL019W 264-277]	530
IIIPPIPSKHSLLK [YDR425W 171-184]	204
IIFPYDPLKLGTHA [YBR163W 509-522]	55.6
IFNPQNPLKTGFEP [YMR087W 156-169]	122
IIGPDEPEKSLILK [YMR066W 43-56]	63.1
IFGPFGPMKEVKIL [YDR432W 144-157]	260
ILLPPLPERAYIMD [YGL144C 459-472]	50600
ILTPDFPERRRLMK [YLR233C 283-296]	1780
